Data as given in doi:10.1101/2022.04.12.488087 (bioRxiv, 2022).

Biological target: SARS-CoV-1 wild type RBD (SARS-CoV-1 (P59594 / NP_828851.1, …))
Assay: crystal structure

B1: nanobody Nb70 (VHH with 6xHis tag, for crystal structural analysis) (VHH)
VHH: QVQLVESGGGLVQAGGSLRLSCVASGRTFSRYAMGWFRQAPGKEREFVAVIEWDGGTSYYVDSVKGRFTISRDNAKNTVYLQMNSLKPEDTAVYYCAAGGNQYYSATYSIWNEYDFWGQGTQVTVSS
binding result: binds
